Laboratory results: patent US20210332133A1 (TENEOTWO, published 2021)

T1: human CD19 (human, UniProt P15391 20-291)
T1 construct: also called B-Lymphocyte Surface Antigen B4; recombinant CD19 extracellular domain
T1 sequence (looked up): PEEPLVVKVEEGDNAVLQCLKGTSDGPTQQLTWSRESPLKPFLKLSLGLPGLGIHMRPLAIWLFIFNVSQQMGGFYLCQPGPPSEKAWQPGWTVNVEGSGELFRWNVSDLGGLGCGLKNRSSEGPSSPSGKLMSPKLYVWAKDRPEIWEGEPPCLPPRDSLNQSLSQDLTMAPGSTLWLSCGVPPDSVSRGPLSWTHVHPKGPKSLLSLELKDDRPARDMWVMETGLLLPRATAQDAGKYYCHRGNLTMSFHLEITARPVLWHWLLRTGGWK

T2: human CD19 on CD19-positive cells (Daudi, Raji, Ramos; CD19+ tumor cell line) (human, UniProt P15391 20-556)
T2 construct: whole, on cells
T2 sequence (looked up): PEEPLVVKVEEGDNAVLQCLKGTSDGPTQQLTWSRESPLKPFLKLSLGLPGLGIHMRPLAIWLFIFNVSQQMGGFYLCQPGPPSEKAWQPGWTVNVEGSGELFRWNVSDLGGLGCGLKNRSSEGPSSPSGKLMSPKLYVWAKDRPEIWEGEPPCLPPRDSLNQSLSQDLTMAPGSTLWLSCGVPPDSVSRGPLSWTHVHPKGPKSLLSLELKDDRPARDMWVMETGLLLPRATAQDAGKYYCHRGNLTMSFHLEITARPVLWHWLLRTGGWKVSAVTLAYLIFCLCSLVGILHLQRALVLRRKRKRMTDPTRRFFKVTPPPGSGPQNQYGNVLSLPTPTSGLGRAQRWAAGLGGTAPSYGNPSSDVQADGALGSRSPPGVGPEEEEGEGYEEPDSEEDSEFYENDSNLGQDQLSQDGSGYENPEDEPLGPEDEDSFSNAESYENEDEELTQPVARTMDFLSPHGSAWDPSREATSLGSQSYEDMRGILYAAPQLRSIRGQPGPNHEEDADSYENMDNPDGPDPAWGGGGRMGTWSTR


Assays:
human CD19 = target: T1, human CD19; assay: ELISA on recombinant CD19 extracellular domain and/or cell-binding assay
[1] = target: T2, human CD19 on CD19-positive cells …; assay: cell binding, flow cytometry
Method: Binding to CD19 positive cells was assessed by flow cytometry (Guava easyCyte 8HT, EMD Millipore) using the Daudi cell line (ATCC). Briefly, 100,000 target cells were stained with a dilution series of purified UniAbs™ for 30 minutes at 4° C. Following incubation, the cells were washed twice with flow cytometry buffer (1X PBS, 1% BSA, 0.1% NaN₃) and stained with goat F(ab′)2 anti-human IgG conjugated to R-phycoerythrin (PE) (Southern Biotech, cat. #2042-09) to detect cell-bound antibodies. After a 20-minute incubation at 4° C., the cells were washed twice with flow cytometry buffer and then mean fluorescence intensity (MFI) was measured by flow cytometry. EC50 values were calculated using GraphPad Prism 7. Binding to cynomolgus CD19 positive cells was determined using the same protocol with the following modifications: the target cells were from CHO cells stably transfected to express the extracellular domain of cynomolgus CD19 and each antibody was tested at a single concentration (˜1.7 μg/mL) so EC50 values were not calculated.

binding result (human CD19) | binding result [1] | Binder
binds | binds | SEQ ID NO 20 (antibody, V domains shown, Heavy chain-only antibody (UniAb, human IgG, no light chain, no CH1)) VH: EVQLVESGGGLVQPGGSLTLSCVASGFTFSDYYMSWIRQAPGKGLEWVANIKQDGSEKFYVDSVKGRFTISRDNPKNSLYLQMDSLRVEDTAVYYCASGVYSFDYRGQGTLVTVSS
binds | binds | SEQ ID NO 15 (antibody, V domains shown, Heavy chain-only antibody (UniAb, human IgG, no light chain, no CH1)) VH: EVQLVESGGGLAQPGGSLRLSCAASGFTFSSFWMSWVRQAPGKGLEWVATMNQDGSEKDYVDSVKGRFTISRDNAKNSLYLQMNSLTAEDTAVYYCASGVYSFDYRGQGTLVTVSS
binds | binds | SEQ ID NO 18 (antibody, V domains shown, Heavy chain-only antibody (UniAb, human IgG, no light chain, no CH1)) VH: EVQLVESGGGLVKPGGSLRLSCEASGFTFSSYWMSWVRQAPGKGLEWVAHIKQDGSEKYYVDSVKGRFTISRDNAKNSLYLQMNSLRAEDTAVYYCASGVYSFDYRGQGTLVTVSS
binds | binds | SEQ ID NO 16 (antibody, V domains shown, Heavy chain-only antibody (UniAb, human IgG, no light chain, no CH1)) VH: EVQLVESGGGMVQPGGSLRLSCAASGFTFSSYWMSWVRQAPGKGLEWVATINQDGSEKDYVDSVKGRFTISRDNAKKSLLLQMNSLRAEDTAVYYCASGVYSFDYRGQGTLVTVSS

More lines, now with the values behind:

Binder | binding result (human CD19) | binding result [1]
SEQ ID NO 21 (antibody, V domains shown, Heavy chain-only antibody (UniAb, human IgG, no light chain, no CH1)) VH: EVQLVESGGGLVQPGGSLRLSCVASGFTFSSYWMSWVRQAPGKGLEWVANIKQDGSEKEYVDSVKGRFTISRDNAKNSLYLQMNSLRAEDTAVYYCASGVYSFDYRGQGTLVTVSS | binds | binds
SEQ ID NO 17 (antibody, V domains shown, Heavy chain-only antibody (UniAb, human IgG, no light chain, no CH1)) VH: EVQLVESGGGLVQPGGSLRLSCAASGFSFSDFWMSWVRQAPGKGLEWVATISQAGSEKDYVDSVKGRFTISRDNAKKSLYLQMNSLRAEDTAVYYCASGVYSFDYRGQGTLVTVSS | binds | binds
SEQ ID NO 14 (antibody, V domains shown, Heavy chain-only antibody (UniAb, human IgG, no light chain, no CH1)) VH: EVQLVESGGGLVQPGGSLRLSCAASGFTFSNYWMSWVRQAPGKGQEWVATINQDGSDKDYVDSVKGRFTISRDNAKKSLYLQMNSLRAEDTAVYYCASGVYSFDYRGQGTLVTVSS | binds | binds
SEQ ID NO 19 (antibody, V domains shown, Heavy chain-only antibody (UniAb, human IgG, no light chain, no CH1)) VH: EVQLVESGGGLVQPGGSLRLSCVASGFTFSDYWMSWVRQAPGKGLEWVANINKAGSEEFYVDSVKGRFTISRDNAKNSLYLQMDSLRAEDTAVYYCASGVYSFDYRGQGTLVTVSS | binds | binds
